Results taken from US20240132578A1.

How the values were obtained:
[1] = target: WT JR-FL gp120 (HIV-1 JR-FL); experiment: ELISA, antigen-coated wells, mAb titrated; EC50 by nonlinear regression
[2] = target: HIV-1 Env of isolate 97ZA012 (HIV-1); experiment: cell-based or functional assay
[3] = target: HIV-1 Env of isolate PVO.4 (HIV-1); experiment: cell-based or functional assay
[4] = target: HIV-1 Env of isolate 92WR021 (pseudovirus) (HIV-1); experiment: cell-based or functional assay
[5] = target: HIV-1 Env of isolate 92WR024 (pseudovirus) (HIV-1); experiment: cell-based or functional assay
[6] = target: HIV-1 Env of isolate 98IN022 (HIV-1); experiment: cell-based or functional assay
[7] = target: HIV-1 Env of isolate MGRM-Chronic-B-010 (HIV-1); experiment: cell-based or functional assay
[8] = target: HIV-1 Env of isolate THR0.18 (HIV-1); experiment: cell-based or functional assay
[9] = target: HIV-1 Env of isolate QH0692.42 (HIV-1); experiment: cell-based or functional assay
[10] = target: HIV-1 Env of isolate MGRM-Chronic-B-024 (HIV-1); experiment: cell-based or functional assay
[11] = target: HIV-1 Env of isolate MGRM-Chronic-B-003 (HIV-1); experiment: cell-based or functional assay
[12] = target: HIV-1 Env of isolate 92UG031 (pseudovirus) (HIV-1); experiment: cell-based or functional assay
[13] = target: HIV-1 Env of isolate MGRM-Chronic-B-012 (HIV-1); experiment: cell-based or functional assay
[14] = target: HIV-1 Env of isolate MGRM-D-001 (pseudovirus) (HIV-1); experiment: cell-based or functional assay
[15] = target: HIV-1 Env of isolate NL43 (HIV-1); experiment: cell-based or functional assay
[16] = target: HIV-1 Env of isolate 93IN905 (HIV-1); experiment: cell-based or functional assay
[17] = target: HIV-1 Env of isolate SC422661.8 (HIV-1); experiment: cell-based or functional assay
[18] = target: HIV-1 Env of isolate JRCSF (HIV-1) (UniProt P20871); experiment: cell-based or functional assay
[19] = target: HIV-1 Env of isolate TRO.11 (HIV-1); experiment: cell-based or functional assay
[20] = target: HIV-1 Env of isolate 93WR029 (pseudovirus) (HIV-1); experiment: cell-based or functional assay
[21] = target: HIV-1 Env of isolate MGRM-AG-012 (subtype AG) (HIV-1); experiment: cell-based or functional assay
[22] = target: HIV-1 Env of isolate MGRM-A-003 (pseudovirus) (HIV-1); experiment: cell-based or functional assay
[23] = target: HIV-1 Env of isolate MGRM-Chronic-B-011 (HIV-1); experiment: cell-based or functional assay
[24] = target: HIV-1 Env of isolate 92WR020 (pseudovirus) (HIV-1); experiment: cell-based or functional assay
[25] = target: HIV-1 Env of isolate 93MW959 (HIV-1); experiment: cell-based or functional assay
[26] = target: HIV-1 Env of isolate TRJ04551.58 (HIV-1); experiment: cell-based or functional assay
[27] = target: HIV-1 Env of isolate MGRM-Chronic-B-020 (HIV-1); experiment: cell-based or functional assay
[28] = target: HIV-1 Env of isolate 93UG077 (pseudovirus) (HIV-1); experiment: cell-based or functional assay
[29] = target: HIV-1 Env of isolate VLGCB3 (HIV-1); experiment: cell-based or functional assay
[30] = target: HIV-1 Env of isolate MGRM-Chronic-B-017 (HIV-1); experiment: cell-based or functional assay
[31] = target: HIV-1 Env of isolate 94UG103 (pseudovirus) (HIV-1); experiment: cell-based or functional assay
[32] = target: HIV-1 Env of isolate 92UG046 (pseudovirus) (HIV-1); experiment: cell-based or functional assay
[33] = target: HIV-1 Env of isolate MGRM-Chronic-B-023 (HIV-1); experiment: cell-based or functional assay
[34] = target: HIV-1 Env of isolate 92UG001 (pseudovirus) (HIV-1); experiment: cell-based or functional assay
[35] = target: HIV-1 Env of isolate 92UG037 (pseudovirus) (HIV-1); experiment: cell-based or functional assay
[36] = target: HIV-1 Env of isolate SF162 (HIV-1) (UniProt P19550); experiment: cell-based or functional assay
[37] = target: HIV-1 Env of isolate MGRM-Chronic-B-018 (HIV-1); experiment: cell-based or functional assay
[38] = target: HIV-1 92RW020 Env (HIV-1); experiment: cell-based or functional assay

Substance | EC50 [1] | IC50 (µg/mL), pseudovirus neutralization [2] | IC50 (µg/mL), pseudovirus neutralization [3] | IC50 (µg/mL), pseudovirus neutralization [4] | IC50 (µg/mL), pseudovirus neutralization [5] | IC50 (µg/mL), pseudovirus neutralization [6] | IC50 (µg/mL), pseudovirus neutralization [7] | IC50 (µg/mL), pseudovirus neutralization [8] | IC50 (µg/mL), pseudovirus neutralization [9] | IC50 (µg/mL), pseudovirus neutralization [10] | IC50 (µg/mL), pseudovirus neutralization [11] | IC50 (µg/mL), pseudovirus neutralization [12] | IC50 (µg/mL), pseudovirus neutralization [13] | IC50 (µg/mL), pseudovirus neutralization [14] | IC50 (µg/mL), pseudovirus neutralization [15] | IC50 (µg/mL), pseudovirus neutralization [16] | IC50 (µg/mL), pseudovirus neutralization [17] | IC50 (µg/mL), pseudovirus neutralization [18] | IC50 (µg/mL), pseudovirus neutralization [19] | IC50 (µg/mL), pseudovirus neutralization [20] | also measured
5136_H01 (PGT-131) (antibody) | 0.4 µg/mL | 1.81 µg/mL | > 50 µg/mL | 0.012 µg/mL | > 50 µg/mL | > 50 µg/mL | 0.016 µg/mL | > 50 µg/mL | > 50 µg/mL | > 50 µg/mL | > 50 µg/mL | > 50 µg/mL | 15.7 µg/mL | > 50 µg/mL | > 50 µg/mL | 0.177 µg/mL | > 50 µg/mL | 0.029 µg/mL | 1.91 µg/mL | > 50 µg/mL | IC50, pseudovirus neutralization [21]: > 50 µg/mL; IC50 (µg/mL), pseudovirus neutralization [22]: > 50 µg/mL; IC50 (µg/mL), pseudovirus neutralization [23]: 6.47 µg/mL; IC50 (µg/mL), pseudovirus neutralization [24]: 0.168 µg/mL; IC50 (µg/mL), pseudovirus neutralization [25]: > 50 µg/mL; IC50 (µg/mL), pseudovirus neutralization [26]: 0.088 µg/mL; IC50 (µg/mL), pseudovirus neutralization [27]: 0.053 µg/mL; IC50 (µg/mL), pseudovirus neutralization [28]: > 50 µg/mL; IC50 (µg/mL), pseudovirus neutralization [29]: > 50 µg/mL; IC50 (µg/mL), pseudovirus neutralization [30]: > 50 µg/mL; IC50 (µg/mL), pseudovirus neutralization [31]: 1.1 µg/mL; IC50 (µg/mL), pseudovirus neutralization [32]: > 50 µg/mL; IC50 (µg/mL), pseudovirus neutralization [33]: > 50 µg/mL; IC50 (µg/mL), pseudovirus neutralization [34]: > 50 µg/mL; IC50 (µg/mL), pseudovirus neutralization [35]: 0.048 µg/mL; IC50 (µg/mL), pseudovirus neutralization [36]: 0.025 µg/mL; IC50 (µg/mL), pseudovirus neutralization [37]: > 50 µg/mL
5147_N06 (PGT-130) (antibody) | 0.2 µg/mL | 1.32 µg/mL | 5.17 µg/mL | 0.004 µg/mL | > 50 µg/mL | > 50 µg/mL | 0.006 µg/mL | > 50 µg/mL | > 50 µg/mL | 5.78 µg/mL | > 50 µg/mL | > 50 µg/mL | 0.373 µg/mL | > 50 µg/mL | > 50 µg/mL | 0.02 µg/mL | > 50 µg/mL | 0.01 µg/mL | 0.257 µg/mL | 34.3 µg/mL | IC50, pseudovirus neutralization [21]: > 50 µg/mL; IC50 (µg/mL), pseudovirus neutralization [22]: > 50 µg/mL; IC50, pseudovirus neutralization [38]: 0.014 µg/mL; IC50 (µg/mL), pseudovirus neutralization [23]: 0.153 µg/mL; IC50 (µg/mL), pseudovirus neutralization [24]: 0.039 µg/mL; IC50 (µg/mL), pseudovirus neutralization [25]: 8.55 µg/mL; IC50 (µg/mL), pseudovirus neutralization [26]: 0.023 µg/mL; IC50 (µg/mL), pseudovirus neutralization [27]: 0.014 µg/mL; IC50 (µg/mL), pseudovirus neutralization [28]: 21.4 µg/mL; IC50 (µg/mL), pseudovirus neutralization [29]: 4.6 µg/mL; IC50 (µg/mL), pseudovirus neutralization [30]: > 50 µg/mL; IC50 (µg/mL), pseudovirus neutralization [31]: 1.4 µg/mL; IC50 (µg/mL), pseudovirus neutralization [32]: > 50 µg/mL; IC50 (µg/mL), pseudovirus neutralization [33]: > 50 µg/mL; IC50 (µg/mL), pseudovirus neutralization [34]: > 50 µg/mL; IC50 (µg/mL), pseudovirus neutralization [35]: 0.061 µg/mL; IC50 (µg/mL), pseudovirus neutralization [36]: 0.007 µg/mL; IC50 (µg/mL), pseudovirus neutralization [37]: 31.9 µg/mL
